Results on three variants are retold here after IntAct's records for PubMed 17872410.

The chains are these.
B1: Adagio protein 3 (Arabidopsis thaliana (Mouse-ear cress)), Q9C9W9 (parent)
chain: MAREHAIGEATGKRKKRGRVEEAEEYCNDGIEEQVEDEKLPLEVGMFYYPMTPPSFIVSDALEPDFPLIYVNRVFEVFTGYRADEVLGRNCRFLQYRDPRAQRRHPLVDPVVVSEIRRCLEEGIEFQGELLNFRKDGTPLVNRLRLAPIRDDDGTITHVIGIQVFSETTIDLDRVSYPVFKHKQQLDQTSECLFPSGSPRFKEHHEDFCGILQLSDEVLAHNILSRLTPRDVASIGSACRRLRQLTKNESVRKMVCQNAWGKEITGTLEIMTKKLRWGRLARELTTLEAVCWRKFTVGGIVQPSRCNFSACAVGNRLVLFGGEGVNMQPLDDTFVLNLDAECPEWQRVRVTSSPPGRWGHTLSCLNGSWLVVFGGCGRQGLLNDVFVLDLDAKHPTWKEVAGGTPPLPRSWHSSCTIEGSKLVVSGGCTDAGVLLSDTFLLDLTTDKPTWKEIPTSWAPPSRLGHSLSVFGRTKILMFGGLANSGHLKLRSGEAYTIDLEDEEPRWRELECSAFPGVVVPPPRLDHVAVSMPCGRVIIFGGSIAGLHSPSQLFLIDPAEEKPSWRILNVPGKPPKLAWGHSTCVVGGTRVLVLGGHTGEEWILNELHELCLASRQDSDL
partner: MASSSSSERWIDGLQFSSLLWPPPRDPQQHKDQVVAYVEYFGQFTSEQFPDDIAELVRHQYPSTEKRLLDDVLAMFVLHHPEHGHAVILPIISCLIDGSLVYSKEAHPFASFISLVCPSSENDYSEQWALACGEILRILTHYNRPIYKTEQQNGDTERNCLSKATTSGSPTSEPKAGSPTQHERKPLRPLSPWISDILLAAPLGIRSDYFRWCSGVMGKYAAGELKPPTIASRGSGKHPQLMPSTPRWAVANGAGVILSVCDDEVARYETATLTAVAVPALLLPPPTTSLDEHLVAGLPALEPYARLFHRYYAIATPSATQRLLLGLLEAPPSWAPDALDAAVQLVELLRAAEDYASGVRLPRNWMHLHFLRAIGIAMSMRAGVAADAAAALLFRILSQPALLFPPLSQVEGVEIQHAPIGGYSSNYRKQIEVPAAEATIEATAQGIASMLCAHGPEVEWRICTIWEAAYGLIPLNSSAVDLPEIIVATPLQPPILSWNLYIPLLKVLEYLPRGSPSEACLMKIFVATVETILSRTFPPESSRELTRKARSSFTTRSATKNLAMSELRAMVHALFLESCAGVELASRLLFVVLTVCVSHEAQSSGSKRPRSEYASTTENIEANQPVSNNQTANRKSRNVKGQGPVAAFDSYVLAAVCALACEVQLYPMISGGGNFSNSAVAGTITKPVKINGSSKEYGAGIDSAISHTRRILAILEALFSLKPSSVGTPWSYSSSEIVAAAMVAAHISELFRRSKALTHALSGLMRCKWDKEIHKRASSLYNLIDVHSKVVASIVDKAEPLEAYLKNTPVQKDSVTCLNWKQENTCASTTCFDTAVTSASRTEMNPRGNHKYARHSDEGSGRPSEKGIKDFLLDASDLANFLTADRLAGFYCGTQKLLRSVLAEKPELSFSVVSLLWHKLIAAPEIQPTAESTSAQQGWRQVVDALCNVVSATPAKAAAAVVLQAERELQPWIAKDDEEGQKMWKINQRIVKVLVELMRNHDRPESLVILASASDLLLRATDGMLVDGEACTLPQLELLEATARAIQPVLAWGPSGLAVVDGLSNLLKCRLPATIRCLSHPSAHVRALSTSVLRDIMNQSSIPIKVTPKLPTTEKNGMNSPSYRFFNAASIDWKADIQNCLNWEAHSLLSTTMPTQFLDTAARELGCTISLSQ

The variants in the test derive from B1. Conditions: with gigan_arath GI.
Turning to Q163L, the “effect of a mutation on the interaction” value is “disrupting interaction”.
In the case of C91A it was “decreasing interaction”; in that of R92D, “decreasing interaction”.
